Test results as given in patent US20140187743A1, “SURFACE-ACTIVE COLLAGEN MEMBRANE BY PEPTIDE” (priority 2011, published 2014).
“And” between values parts separate entries of the source, which are not always exact repeats. Equal values may be shown once. Where no end group is shown, it is not given here. The star is where a group is joined. FITC = O=C1OC2(c3ccc(O)cc3Oc3cc(O)ccc32)c2ccc(NC(=S)*)cc21

Tests used:
[1] = tested on: E. coli; test: Antibacterial test by agar diffusion method, inhibition diameter of peptide-bound collagen membrane; format: cell-based; conditions: for Antibacterial activity (inhibition diameter) of peptide-bound collagen membrane: incubated for 3 days on E. coli plate
Protocol: In another example of the present invention, in order to examine the antibacterial activity of an antibacterial fusion peptide that binds specifically to collagen, a collagen membrane was prepared using each of the peptides of SEQ ID NO: 1, the peptide of SEQ ID NO: 26 and the peptide of SEQ ID NO: 29 in the same manner as described in Example 2. The prepared collagen membrane was washed in PBS for 1 hour and dried in air. To evaluate the antibacterial activity of the peptide, an antibacterial test was performed according to an agar diffusion method. Specifically, E. coli cells were cultured in TSB medium until the absorbance at 620 nm reached 1, and then the cells were harvested and used in the test. The harvested cells were diluted with PBS, and 10^5-10^7 bacterial cells per ml were plated on a TSA plate and incubated at 37° C for 24 hours. On the plate having the incubated bacterial cells thereon, a collagen membrane having each of the peptides of SEQ ID NOS: 1, 26 and 29 bound thereto was placed and incubated for 3 days. Then, the inhibition diameter against the growth of the bacterial cells was measured. […] Using each of the peptides of SEQ ID NOS: 1, 26 and 29, collagen membranes were prepared in the same manner as described in Example 2. Each of the prepared collagen membranes was allowed to stand in 10 ml of PBS for 1 hour and dried in air. To evaluate the antibacterial activity of the peptides, an antibacterial test was performed according to the agar diffusion method. Specifically, E. coli cells were cultured in TSB (tryptic soy broth) medium until the absorbance at 620 nm reached 1, and then the cells were harvested and used in the test. The harvested cells were diluted with PBS, and 10^5-10^7 bacterial cells per ml were plated on a TSA plate and incubated at 37° C. for 24 hours. On the plate having the incubated bacterial cells thereon, a collagen membrane having each of the peptides of SEQ ID NOS: 1, 26 and 29 bound thereto was placed and incubated for 3 days, and then the inhibition diameter against the bacterial cells was inhibited was measured.

[2] = tested on: collagen membrane; test: Peptide release (elution) test from collagen membrane in PBS, HPLC; format: binding, porcine; conditions: for Release of the peptide from collagen membrane: eluate in PBS at 37° C.
Protocol: In still another example of the present invention, in order to examine the collagen-binding ability of the fusion peptide that binds specifically to collagen, porcine sink-derived collagen was dissolved in 0.1M HCl at a concentration of 1%(w/v), the pH was neutralized, and the collagen solution was concentrated to 4% by evaporating the solvent. To prepare a membrane, the concentrated collagen solution was poured into a […] diameter dish and mixed, and to prepare a three-dimensional scaffold, the collagen solution was poured onto a 24-well plate for cell culture and mixed. Next, 1% glutaraldehyde or 1% glyceraldehyde was added to crosslink the collagen solution, which was then washed with distilled water and freeze-dried. The resulting membrane having a size of 1×1 cm and a thickness of 250 μm was wet with 10 mg of the fusion peptide of SEQ ID NO: 24 in 100 μl of DW, washed with PBS and freeze-dried. The collagen membrane having the peptide bound thereto was added to PBS and subjected to a peptide release teat at 37° C. After 7 days, 10 ml of the elution solvent added was completely removed, after which 10 ml of a fresh elution solvent was added to the collagen membrane which was then eluted at 37° C. for 4 weeks. After completion of the elution, the membrane was collected and the peptide content thereof was measured.
1 g of porcine skin-derived collagen was dissolved in 100 ml of 0.1M HCl at a concentration of 1%(w/v), and then the pH of the collagen solution was neutralized, and the solvent was evaporated to the collagen solution to 4%.
In order to prepare a membrane, 8 ml of the concentrated collagen solution was poured in a […]-diameter dish and mixed, and in order to prepare a three-dimensional scaffold, 1 ml of the collagen solution was poured in a 24-well plate for cell culture and mixed. Then, 1% glutaraldehyde or 1% glyceraldehydes was added to crosslink the collagen solution, and the crosslinked collagen was washed with distilled water and freeze-dried (see FIG. 1).
0.038 g of the prepared membrane having a size of 1×1 cm and a thickness of 250 μm fall was wet with 10 mg of the fusion peptide of SEQ ID NO: 24 in 100 μl of deionized water (DW), allowed to stand at 4° C. for 8 hours, washed with PBS, and freeze-dried. The collagen membrane having the peptide bound thereto was added to 10 ml of PBS and subjected to a peptide release test at 37° C.
After 7 days, 10 ml of the elution solvent added was completely removed, and then 10 ml of a fresh elution solvent was added to the collagen membrane which was then eluted at 37° C. for 4 weeks. After completion of the elution, the membrane was collected and the peptide content thereof was measured.
0.038 g of the membrane having the peptide bound thereto was precisely weighed, and 5 ml of mobile phase solvent A was added thereto, followed by sonication for 1 hour. Next, 5 ml of mobile phase solvent B was added to and mixed with the membrane solution, and then the mixture was centrifuged at 4500 rpm for 30 minutes. 1 ml of the supernatant was taken and filtered through a 0.22 millipore filter to obtain a sample solution.
A peptide standard was dried in a desiccator (silica gel) for 5 hours, and about 10 mg of the dried peptide was dissolved in mobile phase solvent A. 10 ml of the solution was used as a standard solution. […]

[3] = tested on: circular skull defect of rabbits; test: In vivo bone regeneration of peptide-bound collagen membrane in circular skull defect; set-up: species or system New Zealand white rabbits; conditions: 8 mm circular skull defect, 4 weeks after transplantation; compared to membranes with SEQ ID NO: 1 or 9
Source text: In still another example of the present invention, in order to examine the in vivo bone regeneration ability of the fusion peptide that binds to the collagen membrane and has the ability to regenerate bone tissue, each of the peptides of SEQ ID NOS: 1, 9 and 24 was bound to the collagen membrane, and then transplanted into the circular skull defect of rabbits, and the bone regeneration ability was examined. Specifically, a circular bone defect having a diameter of 8 mm was formed in the skull of anesthetized rabbits and covered with the collagen membrane, and the periosteum and the skin were doubly sutured. At 4 weeks after the transplantation, the animal was sacrificed, and the collected sample was fixed in a formalin solution. The tissue was embedded to prepare a sample having a thickness of 20 μm. The sample was stained with fuchsin and toluidine blue to prepare a nondemineralized sample. […] Each of the peptides of SEQ ID NOS: 1, 9 and 24, prepared in Example 1, was bound to a collagen membrane according to the method of Example 2, and then transplanted into the circular skull defect of rabbits, and the bone regeneration ability was examined. […]

[4] = rabbit, in vivo
Source text: In still another example of the present invention, in order to examine the in vivo stability of the fusion peptide that binds to collagen and has the ability to regenerate bone tissue, the peptide of SEQ ID NO: 24 labeled with FITC was bound to the collagen membrane which was then transplanted into a rabbit skull defect. […] Before and at days 1, 3, 7, 14, 21 and 28 after the membrane bound to the peptide of SEQ ID NO: 24 labeled with FITC was transplanted into the rabbit skull defect, the blood was collected and whether the peptide was released into the systemic blood was measured using a fluorometer. […] The peptide of SEQ ID NO: 24 labeled with FITC was bound to a collagen membrane in the same manner as described in Example 2. The collagen membrane was transplanted into the skull defect of a rabbit, and after 4 weeks, the membrane transplanted into the skull defect was observed by confocal microscopy (Olympus, Japan). Before and at days 1, 3, 7, 14, 21 and 28 after 10 mg of the peptide of SEQ ID NO: 24 labeled with FITC was transplanted into the rabbit skull defect, the blood was collected and whether the peptide was released into the systemic blood was measured using a fluorometer.

[5] = target: collagen membrane prepared from porcine skin-derived collagen (porcine); test: release test in PBS at 37 C, HPLC of the eluate
Chain of collagen membrane prepared from porcine skin-derived collagen (porcine) (P12675 whole entry): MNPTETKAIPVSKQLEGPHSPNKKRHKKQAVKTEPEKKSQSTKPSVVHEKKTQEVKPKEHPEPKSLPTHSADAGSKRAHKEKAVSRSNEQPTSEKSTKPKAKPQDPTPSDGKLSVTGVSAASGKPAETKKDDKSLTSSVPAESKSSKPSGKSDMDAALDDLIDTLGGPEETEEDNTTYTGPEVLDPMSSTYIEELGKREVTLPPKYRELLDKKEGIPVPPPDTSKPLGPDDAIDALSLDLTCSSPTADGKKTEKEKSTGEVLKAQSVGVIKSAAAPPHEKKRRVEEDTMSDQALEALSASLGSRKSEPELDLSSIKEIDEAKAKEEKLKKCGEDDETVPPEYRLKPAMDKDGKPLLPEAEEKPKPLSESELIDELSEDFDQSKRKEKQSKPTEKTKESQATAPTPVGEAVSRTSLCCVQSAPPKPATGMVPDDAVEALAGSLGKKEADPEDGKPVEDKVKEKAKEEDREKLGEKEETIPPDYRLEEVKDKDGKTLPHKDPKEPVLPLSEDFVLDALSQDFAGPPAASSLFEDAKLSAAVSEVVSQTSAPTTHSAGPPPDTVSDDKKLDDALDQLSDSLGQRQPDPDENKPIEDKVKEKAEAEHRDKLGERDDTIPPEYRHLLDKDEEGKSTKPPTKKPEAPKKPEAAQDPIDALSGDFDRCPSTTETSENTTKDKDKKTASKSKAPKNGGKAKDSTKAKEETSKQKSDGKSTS

[6] = target: collagen membrane prepared from porcine skin-derived collagen (porcine); test: HPLC of peptide extracted from the membrane after 4 weeks of elution in PBS at 37 C
[7] = after washing in PBS for 1 hour

GKCSTRGRKCCRRKK (hBD3-3) [SEQ ID NO: 26, antibacterial peptide derived from human beta-defensin-3]
Decrease of antibacterial activity after washing ([1]; after washing in PBS for 1 hour versus before washing): about 50%
Antibacterial activity (inhibition diameter) of peptide-bound collagen membrane ([1]; before washing): highest antibacterial activity

GLRSKSKKFRRPDIQYPDA (Collagen Binding Peptide) [SEQ ID NO: 1]
Antibacterial activity (inhibition diameter) of peptide-bound collagen membrane [1, 7]: no antibacterial activity
Antibacterial activity (inhibition diameter) of peptide-bound collagen membrane ([1]; before washing): no antibacterial activity

GLRSKSKKFRRPDIQYPDAGKCSTRGRKCCRRKK (Collagen Binding Peptide; hBD3-3) [SEQ ID NO: 29]
Antibacterial activity (inhibition diameter) of peptide-bound collagen membrane [1, 7]: maintained its antibacterial activity

GLRSKSKKFRRPDIQYPDARHPLYVDFSDVGWNDWIVA (Collagen Binding Peptide) [SEQ ID NO: 24]
Peak of the peptide in the eluate ([2]; 4 week elution test, retention time of 13 minutes, Lot Nos. 1, 2 and 3): not observed
Content of the peptide remaining on collagen membrane ([2]; after completion of the 4 week elution at 37° C., Lot Nos. 1-3, 10 mg peptide loaded): 9.2 mg and 9.43 mg and 9.68 mg and 9.20 mg
Release of the peptide from collagen membrane ([2]; day 7, Lot Nos. 1-3, 10 mg peptide loaded): 0 mg
Release of the peptide from collagen membrane ([2]; day 14, Lot Nos. 1-3, 10 mg peptide loaded): 0 mg
Release of the peptide from collagen membrane ([2]; day 28, Lot Nos. 1-3, 10 mg peptide loaded): 0 mg
Bone regeneration ability of the collagen membrane having the peptide bound [3]: increased

SEQ ID NO: 24 labeled with FITC: FITC (fluorescein isothiocyanate) bound to the N-terminus of the peptide of SEQ ID NO: 24 ({FITC}-GLRSKSKKFRRPDIQYPDARHPLYVDFSDVGWNDWIVA)
Spread of the peptide to the surrounding tissue (confocal microscopy) [4]: did not spread to the surrounding tissue

GLRSKSKKFRRPDIQYPDARHPLYVDFSDVGWNDWIVA
peptide released from collagen membrane [5]: 0 mg
content of the peptide remaining on collagen membrane (of 10 mg applied) [6]: 9.2 mg and 9.43 mg and 9.68 mg
